{
  "source": "paper PMC11334519",
  "key": {"3×FLAG-ORF66": {"target": "3×FLAG-ORF66", "assay": "pull-down"}, "[1]": {"target": "6×Myc-tagged ORF24 BD [1–400 aa]", "assay": "pull-down"}, "[2]": {"settings": "293T cells cotransfected, lysates pulled down with S-protein-agarose capturing 2×S-ORF34, parent: 1.00"}},
  "data": [
    {"substance": "2×S-tagged KSHV ORF34 WT C170A", "values": [
      {"measurement": "ratio to parent", "setting": "3×FLAG-ORF66; [2]", "result": 0.05},
      {"measurement": "ratio to parent", "setting": "3×FLAG-ORF66; parent: 1.000", "result": 0.057},
      {"measurement": "ratio to parent", "setting": "[1]; [2]", "result": 0.32},
      {"measurement": "ratio to parent", "setting": "[1]; parent: 1.000", "result": 0.325}
    ]},
    {"substance": "2×S-tagged KSHV ORF34 WT C175A", "values": [
      {"measurement": "ratio to parent", "setting": "3×FLAG-ORF66; [2]", "result": 0.04},
      {"measurement": "ratio to parent", "setting": "3×FLAG-ORF66; parent: 1.000", "result": 0.039},
      {"measurement": "ratio to parent", "setting": "[1]; [2]", "result": 0.34},
      {"measurement": "ratio to parent", "setting": "[1]; parent: 1.000", "result": 0.345}
    ]},
    {"substance": "2×S-tagged KSHV ORF34 WT C256A", "values": [
      {"measurement": "ratio to parent", "setting": "[1]; [2]", "result": 0.11},
      {"measurement": "ratio to parent", "setting": "[1]; parent: 1.000", "result": 0.109}
    ]},
    {"substance": "2×S-tagged KSHV ORF34 WT C259A", "values": [
      {"measurement": "ratio to parent", "setting": "[1]; [2]", "result": 0.03},
      {"measurement": "ratio to parent", "setting": "[1]; parent: 1.000", "result": 0.027}
    ]},
    {"substance": "2×S-tagged KSHV ORF34 WT D154A", "values": [
      {"measurement": "ratio to parent", "setting": "3×FLAG-ORF66; [2]", "result": 0.28},
      {"measurement": "ratio to parent", "setting": "3×FLAG-ORF66; parent: 1.000", "result": 0.282},
      {"measurement": "ratio to parent", "setting": "[1]; [2]", "result": 0.51},
      {"measurement": "ratio to parent", "setting": "[1]; parent: 1.000", "result": 0.512}
    ]},
    {"substance": "2×S-tagged KSHV ORF34 WT E41A; T42A", "values": [
      {"measurement": "ratio to parent", "setting": "3×FLAG-ORF66; [2]", "result": 1.03},
      {"measurement": "ratio to parent", "setting": "3×FLAG-ORF66; parent: 1.000", "result": 1.03},
      {"measurement": "ratio to parent", "setting": "[1]; [2]", "result": 0.88},
      {"measurement": "ratio to parent", "setting": "[1]; parent: 1.000", "result": 0.877}
    ]},
    {"substance": "2×S-tagged KSHV ORF34 WT F47A", "values": [
      {"measurement": "ratio to parent", "setting": "3×FLAG-ORF66; [2]", "result": 1.09},
      {"measurement": "ratio to parent", "setting": "3×FLAG-ORF66; parent: 1.000", "result": 1.09},
      {"measurement": "ratio to parent", "setting": "[1]; [2]", "result": 0.86},
      {"measurement": "ratio to parent", "setting": "[1]; parent: 1.000", "result": 0.859}
    ]},
    {"substance": "2×S-tagged KSHV ORF34 WT G165A", "values": [
      {"measurement": "ratio to parent", "setting": "3×FLAG-ORF66; [2]", "result": 0.02},
      {"measurement": "ratio to parent", "setting": "3×FLAG-ORF66; parent: 1.000", "result": 0.022},
      {"measurement": "ratio to parent", "setting": "[1]; [2]", "result": 0.68},
      {"measurement": "ratio to parent", "setting": "[1]; parent: 1.000", "result": 0.68}
    ]},
    {"substance": "2×S-tagged KSHV ORF34 WT G182A", "values": [
      {"measurement": "ratio to parent", "setting": "3×FLAG-ORF66; [2]", "result": 0.36},
      {"measurement": "ratio to parent", "setting": "3×FLAG-ORF66; parent: 1.000", "result": 0.359},
      {"measurement": "ratio to parent", "setting": "[1]; [2]", "result": 1.28},
      {"measurement": "ratio to parent", "setting": "[1]; parent: 1.000", "result": 1.29}
    ]},
    {"substance": "2×S-tagged KSHV ORF34 WT L188A; L189A", "values": [
      {"measurement": "ratio to parent", "setting": "[1]; [2]", "result": 0.5},
      {"measurement": "ratio to parent", "setting": "[1]; parent: 1.000", "result": 0.503}
    ]},
    {"substance": "2×S-tagged KSHV ORF34 WT Q264A; N265A", "values": [
      {"measurement": "ratio to parent", "setting": "[1]; [2]", "result": 0.67},
      {"measurement": "ratio to parent", "setting": "[1]; parent: 1.000", "result": 0.665}
    ]},
    {"substance": "2×S-tagged KSHV ORF34 WT R234A", "values": [
      {"measurement": "ratio to parent", "setting": "3×FLAG-ORF66; [2]", "result": 0.77},
      {"measurement": "ratio to parent", "setting": "3×FLAG-ORF66; parent: 1.000", "result": 0.775},
      {"measurement": "ratio to parent", "setting": "[1]; [2]", "result": 0.74},
      {"measurement": "ratio to parent", "setting": "[1]; parent: 1.000", "result": 0.74}
    ]},
    {"substance": "2×S-tagged KSHV ORF34 WT S168A", "values": [
      {"measurement": "ratio to parent", "setting": "3×FLAG-ORF66; [2]", "result": 0.97},
      {"measurement": "ratio to parent", "setting": "3×FLAG-ORF66; parent: 1.000", "result": 0.969},
      {"measurement": "ratio to parent", "setting": "[1]; [2]", "result": 0.94},
      {"measurement": "ratio to parent", "setting": "[1]; parent: 1.000", "result": 0.94}
    ]},
    {"substance": "2×S-tagged KSHV ORF34 WT V50A", "values": [
      {"measurement": "ratio to parent", "setting": "3×FLAG-ORF66; [2]", "result": 1.11},
      {"measurement": "ratio to parent", "setting": "3×FLAG-ORF66; parent: 1.000", "result": 1.11},
      {"measurement": "ratio to parent", "setting": "[1]; [2]", "result": 0.86},
      {"measurement": "ratio to parent", "setting": "[1]; parent: 1.000", "result": 0.861}
    ]},
    {"substance": "2×S-tagged KSHV ORF34 WT W160A", "values": [
      {"measurement": "ratio to parent", "setting": "3×FLAG-ORF66; [2]", "result": 0.29},
      {"measurement": "ratio to parent", "setting": "3×FLAG-ORF66; parent: 1.000", "result": 0.289},
      {"measurement": "ratio to parent", "setting": "[1]; [2]", "result": 0.47},
      {"measurement": "ratio to parent", "setting": "[1]; parent: 1.000", "result": 0.473}
    ]},
    {"substance": "2×S-tagged KSHV ORF34 WT Y194A", "values": [
      {"measurement": "ratio to parent", "setting": "3×FLAG-ORF66; [2]", "result": 0.003},
      {"measurement": "ratio to parent", "setting": "3×FLAG-ORF66; parent: 1.000", "result": 0.003},
      {"measurement": "ratio to parent", "setting": "[1]; [2]", "result": 0.64},
      {"measurement": "ratio to parent", "setting": "[1]; parent: 1.000", "result": 0.645}
    ]},
    {"substance": "2×S-tagged KSHV ORF34 WT Y215A", "values": [
      {"measurement": "ratio to parent", "setting": "3×FLAG-ORF66; [2]", "result": 0.16},
      {"measurement": "ratio to parent", "setting": "3×FLAG-ORF66; parent: 1.000", "result": 0.167},
      {"measurement": "ratio to parent", "setting": "[1]; [2]", "result": 1.02},
      {"measurement": "ratio to parent", "setting": "[1]; parent: 1.000", "result": 1.02}
    ]},
    {"substance": "2×S-tagged KSHV ORF34 WT Y310A", "values": [
      {"measurement": "ratio to parent", "setting": "3×FLAG-ORF66; [2]", "result": 0.17},
      {"measurement": "ratio to parent", "setting": "3×FLAG-ORF66; parent: 1.000", "result": 0.173},
      {"measurement": "ratio to parent", "setting": "[1]; [2]", "result": 0.96},
      {"measurement": "ratio to parent", "setting": "[1]; parent: 1.000", "result": 0.956}
    ]}
  ]
}
